Earlier results, collected in article doi:10.1101/2025.11.26.690829.

Molecular target: TDP-43 NTD (Homo sapiens) (UniProt Q13148)

Kd: 2 µM
Substance: TDP-43 NTD (from UniProt Q13148)
